Several values for one entry are separate records, joined by “and”; a condition that tells them apart may be missing. Equal entries are not always repeated.
Columns and labels:
AUC = molecular target: the molecule itself; experiment: AUC
[1] = molecular target: the molecule itself; experiment: GdmCl-induced equilibrium unfolding-refolding monitored by CD

| Protein | stoichiometry N (AUC) | Keq ([U]^3/[N], native trimer to unfolded monomers, in water) [1] [mol^2] |
| --- | --- | --- |
| full-length NC1 domain of murine collagen XVIII (domain or fragment) AGQVRIWATYQTMLDKIREVPEGWLIFVAEREELYVRVRNGFRKVLLEARTALPRGTGNEVAALQPPLVQLHEGSPYTRREYSYSTARPWRADDILANPPRLPDRQPYPGVPHHHSSYVHLPPARPTLSLAHTHQDFQPVLHLVALNTPLSGGMRGIRGADFQCFQQARAVGLSGTFRAFLSSRLQDLYSIVRRADRGSVPIVNLKDEVLSPSWDSLFSGSQGQLQPGARIFSFDGRDVLRHPAWPQKSVWHGSDPSGRRLMESYCETWRTETTGATGQASSLLSGRLLEQKAASCHNSYIVLCIENSFMTSFSK | 2.56 |  |
| NC1(54) peptide of human collagen XVIII (domain or fragment) GSSGVRLWATRQAMLGQVHEVPEGWLIFVAEQEELYVRVQNGFRKVQLEARTPLPR |  | 2.4e-21 |
| full-length NC1 domain of murine collagen XV (domain or fragment) NLVTALSDMGDMLQKAHLVIEGTFIYLRDSGEFFIRVRDGWKKLQLGELIPIPADSPPPPALSSNPYQPQPPLNPILSANYERPVLHLVALNTPVAGDIRADFQCFQQARAAGLLSTFRAFLSSHLQDLSTVVRKAERFGLPIVNLKGQVLFNNWDSIFSGDGGQFNTHIPIYSFDGRDVMTDPSWPQKVVWHGSNPHGVRLVDKYCEAWRTTDMAVTGFASPLSTGKILDQKAYSCANRLIVLCIENSFMTDTRK | 3.11 and 3.6 |  |
